The labels stand for the following.
B1: PRT-589 (protein)
chain: MRNQTTTYSEVTPSHITSVWTKGVTPPEQFIQGEDVFHAPYIANQGWYDITKTFNGKDDLLCGAATAGNMLHWWFDQNKEQIENYLKKHPEKQKINFNNEEMFDVREAINTKDSQTDSALFSYFKDKAFPYLSAKHLGVFPDHVIDMFINGYRLSLTNHDKTDVNRGTKDPRGGIFDAVFTRGDQSKLLTARHDFKNKTLKEISDLIKQELTEGKALGLSHTYANVRINHVINLWGADFDAEGNLEAIYVTDSDSNASIGMKKYYVGVNSAGKVAISAKKIEGDNIGAQVLGLFTLSTGQDIWQQTNLEHHHHHH
B2: PRT-539 (protein)
chain: MANQEIRYSKNENPNVTIKWVHGIGEPTQAEKEKIEFYWYETNTTKFFNNRKVTHLGDSNQCWAKTASNMLHWWFEQNKENINKYIEKKNITGKINFNGEQMFDVKEGIDDNQEKEKSYIANTFRTKKAHNLSTKHKGDYIISGLAWYLYGLNNFKNAHGPTPVKKKPKFYGPALFKDVFNRGDGNTPIKEETDFKEYTKKEFEDILKEALDSKKAIGINIYGSNVGYGHAITLWGAAFDEDNNIIAIYVVDNNFKFENRIFPYGIWYEKEGRPYLFNYEINSFVKNRYVGEITTLDKGEAQWQETNLEHHHHHH
B3: PRT-601 (protein)
chain: MANQEIRYSEETPSTVTSVWTKGVTPPTDFIQNEDVLHAPYIANQGWYDITKTFNGKDDLLCGAATAGNMLHWWFDQNKEQIKNYLKKHPEKQKINFNGEQMFDVKEAIDTKNHQLDSALFEYFKDKAFPYLSTKHLGVFPDHVIDMFINGYRLSLTNHGPTPVKRGTKDPRGGIFDAVFTRGDQSKLLTSRHDFKEKNLNEISDLIKKELTEGKALGLSHTYANVRINHVINLWGADFNANGNLEAIYVTDSDSNASIGMKKYFVGVNSAGKVAISAKEIKGDNIGAQVLGLFTLSTGQDSWNQTNLEHHHHHH
B4: PRT-277 (protein)
chain: MVTSVWTKGVTPPTDFIYGEDVLHAPYKAGQGWYDITKLFNGKDNLLCGAATAGNMLHWWFDQNKEQIENYLKKHPEKQKIIFNNQELFDLKAAIDTKDSQLDSKLFEYFLEKAFPNLSTKHLGVFPDHVIDMFINGYRLSLLNHGPTPVKRGSKDKRGGIFDAVFTRGVQSKLLTNRHDLKNKTLKEISDLIKQELTEGKALGISHTYANGRINHVINLWGADFDAEGNLEAIAVTDSDTNASIGMKKYFVGVNSSGKVAISAKEIEEDNIGAQVLGLFTLSTGQDIWNQTN
B5: PRT-278 (protein)
chain: B4 chain with E108D, L111K, N117Y, L143T, G212V, A235Y, A243P
B6: PRT-552 (protein)
chain: MANQEIRYSEETPKTITSVWTKGVTPPTDFIQNEDVLHAPYIANQGWYDITKTFNGKDDLLCGAATAGNMLHWWFDQNKEEIENYLKKHPEKQKINFNGEQMFDVKEAIDTKDSQTDSALFEYFKDKAFPYLSTKHLGVFPDHVIDMFINGYRLSLTNHGPTPVKRGTKDPRGGIFDAVFTRGDQSKLLTARHDFKEKTLNEISDLIKQELTEGKALGLSHTYANVRINHVINLWGADFNSEGNLEAIYVTDSDSNASIGMKKYYVGVNAAGKVAISAKEIEGDNIGAQVLGLFTLSTGQDIWNQTNLEHHHHHH
B7: PRT-597 (protein)
chain: B6 chain with K14S, E81Q, A191S, S241A, E242N, A270S
B8: PRT-558 (protein)
chain: B6 chain with K14S, V19I, D29Q, E80T, K87T, E122S, S186T, N304Q
B9: PRT-38 (protein)
chain: MANQEIRYSEVTPYHVTSVWTKGVTPPANFTQGEDVFHAPYVANQGWYDITKTFNGKDDLLCGAATAGNMLHWWFDQNKDQIKRYLEEHPEKQKINFNGEQMFDVKEAIDTKNHQLDSKLFEYFKEKAFPYLSTKHLGVFPDHVIDMFINGYRLSLTNHGPTPVKEGSKDPRGGIFDAVFTRGDQSKLLTSRHDFKEKNLKEISDLIKKELTEGKALGLSHTYANVRINHVINLWGADFDSNGNLEAIYVTDSDSNASIGMKKYFVGVNSAGKVAISAKEIKEDNIGAQVLGLFTLSTGQDSWNQTN
B10: PRT-40 (protein)
chain: B9 chain with I145L, E246K
B11: PRT-39 (protein)
chain: B9 chain with K209Q, E246K
B12: PRT-579 (protein)
chain: MANQEIRYSKATPSHITSVWTKGVTPPENFIYNEDVLHAPYLPNQGWYDITKTFNGKDDLLCGAATAGNMLHWWFDQNKEQIERYLKEHPEKQKINFNGEQMFDVKEAIDTKDSQTNSKLFEYFKDKAFPYLSTKHLGVFPDHVIDMFINGYRLSLTNHGPTPVKEQNKDPRGGIFDAVFTRGDQSKLLTSRHDFKEKTLNEISQLIKQELTEGKALGLSHTYANVRINHVINLWGADFNAEGNLEAIYVTDSDSNASIGMKKYYVGVNSAGKVAISAKEIEGDNIGAQVLGLFTLSTGQDIWQQTNLEHHHHHH
B13: PRT-529 (protein)
chain: MANQEIRYSEETPKTITSVWTKGVTPPTDFIKNEDVLHAPYIANQGWYDITKTFNGKDDLLCGAATAGNMLHWWFDQNKEEIENYLKKHPEKQKINFNGEQMFDVKEAIDTKDSQTDSALFEYFKDKAFPNLSTKHLGVMPDLVLDMFINGYYLSLGKHGPTPVKRGTKDPRGGIFDAVFTRGDQTKLLTARHDFKEKTLNEISDLIKQELTEGKALALSHTYANVRINHVINLWGADFNSEGNLEAIYVTDSDSNASIGMKKYYVGVNAAGKVAISAKEIEGDNIGAQVLGLFTLSTGQDIWEQTNLEHHHHHH
B14: PRT-285 (protein)
chain: MVTSVWTKGVTPPAKFTQGEDVFHAPYDANQGWYDITKTFNGKDDLLCGAATAGNMLHWWFDQNKEKIEAYLKKHPDKQKIMFGDQELLDVRKVINTKGDQTNSELFNYFRDKAFPGLSARRIGVMPDLVLDMFINGYYLNVYKTQTTDVNRTYQEKDRRGGIFDAVFTRGDQSKLLTSRHDFKEKNLKEISDLIKKELTEGKALGLSHTYANVRISHVINLWGADFDSNGNLKAIYVTDSDSNASIGMKKYGVGVNSAGKVAISAKEIKEDNIGAQVLGLFTLSTGQDSWNQTN
B15: PRT-286 (protein)
chain: B14 chain with G117N, G253F, A259S

Changes are numbered by the printed parent chain.

The target of this series is pooled human IgG.
With B1, the Enzyme Activity Endpoint Assay: Fab′2 came out at 863 ng/µL, the Enzyme Activity Endpoint Assay: Fc was 352 ng/µL, the Enzyme Activity Endpoint Assay: IgG stood at 0 ng/µL and the Enzyme Activity Endpoint Assay: scIgG stood at 0 ng/µL.

Protein B2 showed an Enzyme Activity Endpoint Assay: Fab′2 of 0 ng/µL, an Enzyme Activity Endpoint Assay: Fc of 0 ng/µL, an Enzyme Activity Endpoint Assay: IgG of 1400 ng/µL and an Enzyme Activity Endpoint Assay: scIgG of 0 ng/µL.

B3 returned an Enzyme Activity Endpoint Assay: Fab′2 of 720 ng/µL, an Enzyme Activity Endpoint Assay: Fc of 529 ng/µL, an Enzyme Activity Endpoint Assay: IgG of 0 ng/µL and an Enzyme Activity Endpoint Assay: scIgG of 0 ng/µL.

In the case of B4, the Enzyme Activity Endpoint Assay: Fab′2 was determined as 19 ng/µL, the Enzyme Activity Endpoint Assay: Fc came to 160 ng/µL, the Enzyme Activity Endpoint Assay: IgG was found to be 401 ng/µL and the Enzyme Activity Endpoint Assay: scIgG worked out at 705 ng/µL.

Take B5: the Enzyme Activity Endpoint Assay: Fab′2 turned out to be 547 ng/µL, the Enzyme Activity Endpoint Assay: Fc was 315 ng/µL, the Enzyme Activity Endpoint Assay: IgG is 0 ng/µL and the Enzyme Activity Endpoint Assay: scIgG is 0 ng/µL.

Protein B6 came in with an Enzyme Activity Endpoint Assay: Fab′2 of 439 ng/µL, an Enzyme Activity Endpoint Assay: Fc of 294 ng/µL, an Enzyme Activity Endpoint Assay: IgG of 45 ng/µL and an Enzyme Activity Endpoint Assay: scIgG of 264 ng/µL.

Protein B7 came in with an Enzyme Activity Endpoint Assay: Fab′2 of 603 ng/µL, an Enzyme Activity Endpoint Assay: Fc of 315 ng/µL, an Enzyme Activity Endpoint Assay: IgG of 0 ng/µL and an Enzyme Activity Endpoint Assay: scIgG of 0 ng/µL.

B8 displayed an Enzyme Activity Endpoint Assay: Fab′2 of 700 ng/µL, an Enzyme Activity Endpoint Assay: Fc of 281 ng/µL, an Enzyme Activity Endpoint Assay: IgG of 0 ng/µL and an Enzyme Activity Endpoint Assay: scIgG of 0 ng/µL.

B9 came in with an Enzyme Activity Endpoint Assay: Fab′2 of 46 ng/µL, an Enzyme Activity Endpoint Assay: Fc of 124 ng/µL, an Enzyme Activity Endpoint Assay: IgG of 14 ng/µL and an Enzyme Activity Endpoint Assay: scIgG of 15 ng/µL.

Turning to B10, the Enzyme Activity Endpoint Assay: Fab′2 turned out to be 42 ng/µL, the Enzyme Activity Endpoint Assay: Fc was determined as 108 ng/µL, the Enzyme Activity Endpoint Assay: IgG was 14 ng/µL and the Enzyme Activity Endpoint Assay: scIgG was 13 ng/µL.

As for B11, the Enzyme Activity Endpoint Assay: Fab′2 was determined as 39 ng/µL, the Enzyme Activity Endpoint Assay: Fc was determined as 116 ng/µL, the Enzyme Activity Endpoint Assay: IgG is 9 ng/µL and the Enzyme Activity Endpoint Assay: scIgG was determined as 19 ng/µL.

In turn, B12 gave an Enzyme Activity Endpoint Assay: Fab′2 of 816 ng/µL, an Enzyme Activity Endpoint Assay: Fc of 450 ng/µL, an Enzyme Activity Endpoint Assay: IgG of 0 ng/µL and an Enzyme Activity Endpoint Assay: scIgG of 0 ng/µL.

B13 yielded an Enzyme Activity Endpoint Assay: Fab′2 of 0 ng/µL, an Enzyme Activity Endpoint Assay: Fc of 177 ng/µL, an Enzyme Activity Endpoint Assay: IgG of 508 ng/µL and an Enzyme Activity Endpoint Assay: scIgG of 350 ng/µL.

Consider B14, for which the Enzyme Activity Endpoint Assay: Fab′2 stood at 0 ng/µL, the Enzyme Activity Endpoint Assay: Fc was 0 ng/µL, the Enzyme Activity Endpoint Assay: IgG is 1320 ng/µL and the Enzyme Activity Endpoint Assay: scIgG came out at 0 ng/µL.

As to B15, the Enzyme Activity Endpoint Assay: Fab′2 stood at 650 ng/µL, the Enzyme Activity Endpoint Assay: Fc is 352 ng/µL, the Enzyme Activity Endpoint Assay: IgG was 0 ng/µL and the Enzyme Activity Endpoint Assay: scIgG is 0 ng/µL.

The values above are taken from US20250027068.
